The supplement of paper PMC9112550, “Optimization of the antimicrobial peptide Bac7 by deep mutational scanning” (BMC Biology, 2022)

tested on: Escherichia coli TOP10; assay: shrunken log2 fold change of peptide-encoding DNA abundance (4.5 h post-induction vs induction); higher = less antimicrobial activity (less host growth inhibition); conditions: time post-induction: 4.5 h; library: site-saturation at positions 5, 18, 19, 20
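Note: peptides expressed intracellularly from a pBAD plasmid library in pooled LB shake-flask culture, induced with 0.3% L-arabinose, DNA abundance read by NGS, three biological replicates, DESeq2 with apeglm shrinkage.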

| Sequence | shrunken log2 fold change |
| --- | --- |
| RRIRYRPPRLPRPRPRPFKRPRP | -0.294 |
| RRIRNRPPRLPRPRPRPTAMPRP | 0.285 |
| RRIRQRPPRLPRPRPRPNALPRP | 0.023 |
| RRIRRRPPRLPRPRPRPGHIPRP | -0.116 |
| RRIRARPPRLPRPRPRPQKIPRP | -0.108 |
| RRIRQRPPRLPRPRPRPRPMPRP | 0.303 |
| RRIRERPPRLPRPRPRPDEDPRP | -0.209 |
| RRIRPRPPRLPRPRPRPVMIPRP | -0.251 |
| RRIRHRPPRLPRPRPRPICHPRP | -0.265 |
| RRIRQRPPRLPRPRPRPKLSPRP | 0.00202 |
| RRIRPRPPRLPRPRPRPDQHPRP | -0.0313 |
| RRIRKRPPRLPRPRPRPCPLPRP | -0.24 |
| RRIRYRPPRLPRPRPRPITPPRP | -0.174 |
| RRIRHRPPRLPRPRPRPSKKPRP | 0.0943 |
| RRIRPRPPRLPRPRPRPAEYPRP | -0.565 |
| RRIRFRPPRLPRPRPRPDMCPRP | 0.124 |
| RRIRKRPPRLPRPRPRPHQSPRP | 0.226 |
| RRIRKRPPRLPRPRPRPSAYPRP | -0.277 |
| RRIRPRPPRLPRPRPRPDKIPRP | -0.184 |
| RRIRCRPPRLPRPRPRPWQTPRP | -0.0433 |
| RRIRPRPPRLPRPRPRPCMVPRP | -0.423 |
| RRIRGRPPRLPRPRPRPMYFPRP | -0.0129 |

| Sequence | shrunken log2 fold change |
| --- | --- |
| RRIRPRPPRLPRPRPRPHRVPRP | 0.164 |
| RRIRFRPPRLPRPRPRPLFEPRP | -0.0359 |
| RRIRGRPPRLPRPRPRPWDGPRP | 0.486 |
| RRIRERPPRLPRPRPRPNKCPRP | -0.522 |
| RRIRARPPRLPRPRPRPVSYPRP | -0.133 |
| RRIRLRPPRLPRPRPRPYSLPRP | -0.0459 |
| RRIRHRPPRLPRPRPRPQSYPRP | -0.175 |
| RRIRMRPPRLPRPRPRPTGRPRP | 1.24 |
| RRIRPRPPRLPRPRPRPNLQPRP | 0.0751 |
| RRIRERPPRLPRPRPRPGGNPRP | -0.442 |
| RRIRCRPPRLPRPRPRPEYCPRP | -0.0902 |
| RRIRQRPPRLPRPRPRPMQHPRP | -0.165 |
| RRIRQRPPRLPRPRPRPIIDPRP | -0.199 |
| RRIRPRPPRLPRPRPRPRSEPRP | 0.564 |
| RRIRCRPPRLPRPRPRPAFTPRP | 0.0636 |
| RRIRRRPPRLPRPRPRPQDTPRP | -0.321 |
| RRIRDRPPRLPRPRPRPFLMPRP | -0.0685 |
| RRIRWRPPRLPRPRPRPRTCPRP | -0.045 |
| RRIRCRPPRLPRPRPRPSTIPRP | 0.255 |
| RRIRLRPPRLPRPRPRPWFMPRP | -0.0837 |
| RRIRWRPPRLPRPRPRPANLPRP | -0.285 |
| RRIRHRPPRLPRPRPRPYMVPRP | -0.0357 |

| Sequence | shrunken log2 fold change |
| --- | --- |
| RRIRLRPPRLPRPRPRPMLSPRP | 0.0192 |
| RRIRRRPPRLPRPRPRPTACPRP | 0.636 |
| RRIRTRPPRLPRPRPRPAYVPRP | -0.27 |
| RRIRQRPPRLPRPRPRPYLEPRP | -0.332 |
| RRIRDRPPRLPRPRPRPNDYPRP | -0.197 |
| RRIRHRPPRLPRPRPRPLMRPRP | 0.221 |
| RRIRRRPPRLPRPRPRPGCFPRP | 0.5 |
| RRIRYRPPRLPRPRPRPLAKPRP | 0.19 |
| RRIRHRPPRLPRPRPRPEFIPRP | -0.0433 |
| RRIRTRPPRLPRPRPRPSPCPRP | -0.0588 |
| RRIRLRPPRLPRPRPRPHKMPRP | -0.355 |
| RRIRPRPPRLPRPRPRPKENPRP | -0.102 |
| RRIRGRPPRLPRPRPRPTIQPRP | 0.54 |
| RRIRRRPPRLPRPRPRPGPEPRP | 0.662 |
| RRIRGRPPRLPRPRPRPRHLPRP | 0.221 |
| RRIRCRPPRLPRPRPRPCDSPRP | -0.042 |
| RRIRNRPPRLPRPRPRPRDAPRP | -0.163 |
| RRIRERPPRLPRPRPRPAISPRP | -0.691 |
| RRIRHRPPRLPRPRPRPRSDPRP | -0.123 |
| RRIRHRPPRLPRPRPRPVITPRP | 0.0477 |
| RRIRARPPRLPRPRPRPYQTPRP | 0.00502 |
| RRIRDRPPRLPRPRPRPYFQPRP | -0.236 |

| Sequence | shrunken log2 fold change |
| --- | --- |
| RRIRLRPPRLPRPRPRPIHCPRP | -0.0842 |
| RRIRRRPPRLPRPRPRPNIKPRP | 0.153 |
| RRIRWRPPRLPRPRPRPANYPRP | -0.0848 |
| RRIRCRPPRLPRPRPRPRGVPRP | 0.69 |
| RRIRWRPPRLPRPRPRPFSHPRP | -0.241 |
| RRIRFRPPRLPRPRPRPLTEPRP | -0.331 |
| RRIRVRPPRLPRPRPRPWDNPRP | 0.0145 |
| RRIRSRPPRLPRPRPRPGDDPRP | 0.0869 |
| RRIRARPPRLPRPRPRPPRMPRP | 0.949 |
| RRIRCRPPRLPRPRPRPEVLPRP | 0.149 |
| RRIRYRPPRLPRPRPRPNDDPRP | -0.0641 |
| RRIRMRPPRLPRPRPRPLDHPRP | 0.103 |
| RRIRHRPPRLPRPRPRPTWYPRP | -0.674 |
| RRIRYRPPRLPRPRPRPYQPPRP | 0.0857 |
| RRIRTRPPRLPRPRPRPAYPPRP | -0.072 |
| RRIRRRPPRLPRPRPRPAIIPRP | -0.115 |
| RRIRPRPPRLPRPRPRPQCYPRP | -0.44 |
| RRIRDRPPRLPRPRPRPGYYPRP | 0.117 |
| RRIRVRPPRLPRPRPRPQSGPRP | -0.0607 |
| RRIRHRPPRLPRPRPRPRYRPRP | -0.109 |
| RRIRCRPPRLPRPRPRPGKYPRP | -0.316 |
| RRIRTRPPRLPRPRPRPFDCPRP | -0.748 |

| Sequence | shrunken log2 fold change |
| --- | --- |
| RRIRPRPPRLPRPRPRPKNYPRP | -0.428 |
| RRIRYRPPRLPRPRPRPNKKPRP | -0.298 |
| RRIRIRPPRLPRPRPRPEIQPRP | -0.171 |
| RRIRERPPRLPRPRPRPYLIPRP | -0.626 |
| RRIRGRPPRLPRPRPRPTDRPRP | 0.0231 |
| RRIRLRPPRLPRPRPRPTNSPRP | -0.355 |
| RRIRHRPPRLPRPRPRPGDKPRP | -0.0257 |
| RRIRFRPPRLPRPRPRPYLIPRP | -0.417 |
| RRIRERPPRLPRPRPRPSPRPRP | 0.265 |
| RRIRPRPPRLPRPRPRPNFGPRP | 0.26 |
| RRIRHRPPRLPRPRPRPAFRPRP | 0.0888 |
| RRIRDRPPRLPRPRPRPRQSPRP | -0.00504 |
| RRIRMRPPRLPRPRPRPWRFPRP | 0.0528 |
| RRIRNRPPRLPRPRPRPFTFPRP | -0.628 |
| RRIRHRPPRLPRPRPRPRDYPRP | 0.0554 |
| RRIRKRPPRLPRPRPRPWPKPRP | 0.274 |
| RRIRHRPPRLPRPRPRPAHWPRP | -0.179 |
| RRIRDRPPRLPRPRPRPPDFPRP | 0.0426 |
| RRIRLRPPRLPRPRPRPEQEPRP | -0.104 |
| RRIRARPPRLPRPRPRPRCWPRP | 0.601 |
| RRIRWRPPRLPRPRPRPWSHPRP | -0.00467 |
